The record followed here is article PMC3675161 (Biochemistry, 2013).

This series deals with the molecule itself. The experiment in a line: SEC. On the technique in general: In gel filtration, larger molecules generally elute earlier.

B1: cytoplasmic portion of selenoprotein S with its native selenocysteine (cSelS) (domain or fragment, human, UniProt Q9BQE4 52-189, looked up)
chain: SARLRALRQRQLDRAAAAVEPDVVVKRQEALAAARLKMQEELNAQVEKHKEKLKQLEEEKRRQKIEMWDSMQEGKSYKGNAKKPQEEDSPGPSTSSVLKRKSDRKPLRGGGYNPLSGEGGGACSWRPGRRGPSSGGUG
modifications: selenocysteine at position 188
With B1, the stoichiometry N – broadly, the number of molecules, sites or subunits per partner or assembly – worked out at 2.
